{"source": "paper PMC9638900", "key": {"PLE2 IntS12A": {"target": "T1, PLE2 IntS12A (Vibrio cholerae PLE2 (satellite), UniProt M1T311 1-630, S12A)", "T1 sequence": "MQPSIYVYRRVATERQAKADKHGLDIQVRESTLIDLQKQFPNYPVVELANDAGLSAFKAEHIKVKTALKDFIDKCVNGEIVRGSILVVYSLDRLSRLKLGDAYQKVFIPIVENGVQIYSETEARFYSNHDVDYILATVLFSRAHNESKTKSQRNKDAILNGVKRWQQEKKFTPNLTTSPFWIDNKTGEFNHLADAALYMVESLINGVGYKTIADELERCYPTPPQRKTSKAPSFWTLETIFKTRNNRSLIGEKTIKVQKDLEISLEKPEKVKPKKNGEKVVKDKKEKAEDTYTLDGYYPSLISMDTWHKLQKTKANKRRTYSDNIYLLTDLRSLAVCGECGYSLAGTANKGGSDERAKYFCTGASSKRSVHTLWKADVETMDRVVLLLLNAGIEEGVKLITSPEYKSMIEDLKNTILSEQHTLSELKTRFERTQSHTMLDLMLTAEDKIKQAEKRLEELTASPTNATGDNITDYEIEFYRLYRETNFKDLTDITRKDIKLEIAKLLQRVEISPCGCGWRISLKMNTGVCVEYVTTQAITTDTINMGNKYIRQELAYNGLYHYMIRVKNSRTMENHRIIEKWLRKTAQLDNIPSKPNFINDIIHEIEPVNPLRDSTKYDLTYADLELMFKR", "assay": "EMSA"}, "[1]": {"target": "T2, PLE2 Int (large serine recombinase) (Vibrio cholerae PLE2 (satellite), UniProt M1T311 1-630)", "T2 sequence": "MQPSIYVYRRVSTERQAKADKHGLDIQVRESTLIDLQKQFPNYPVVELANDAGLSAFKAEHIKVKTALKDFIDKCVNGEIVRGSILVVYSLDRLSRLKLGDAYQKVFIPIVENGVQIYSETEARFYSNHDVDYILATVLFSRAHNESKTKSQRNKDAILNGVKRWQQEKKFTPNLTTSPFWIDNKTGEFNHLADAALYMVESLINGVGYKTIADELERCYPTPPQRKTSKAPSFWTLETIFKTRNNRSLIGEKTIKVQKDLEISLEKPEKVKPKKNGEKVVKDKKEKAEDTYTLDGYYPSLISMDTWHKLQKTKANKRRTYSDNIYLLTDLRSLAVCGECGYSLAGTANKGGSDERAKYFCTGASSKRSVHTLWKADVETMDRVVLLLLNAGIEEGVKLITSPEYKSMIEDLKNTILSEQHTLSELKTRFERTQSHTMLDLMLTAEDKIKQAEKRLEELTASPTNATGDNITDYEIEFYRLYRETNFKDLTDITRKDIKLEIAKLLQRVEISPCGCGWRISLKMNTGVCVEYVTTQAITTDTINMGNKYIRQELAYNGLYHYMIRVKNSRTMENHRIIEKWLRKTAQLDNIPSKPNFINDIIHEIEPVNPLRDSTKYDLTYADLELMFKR", "assay": "EMSA"}}}
{"binder": "PLE2 attP EMSA probe (MN262/MN263) (dsDNA) DNA 1: GATAGGTCATTTTATACTTCTGACAAAGTTACATATGACTTGCATTAGTG DNA 2: CACTAATGCAAGTCATATGTAACTTTGTCAGAAGTATAAAATGACCTATC", "values": [{"measurement": "binding result", "setting": "PLE2 IntS12A", "value": "binds"}, {"measurement": "binding result", "setting": "[1]", "value": "binds"}]}
